Consider 1 molecule from patent publication US20140161732A1.

Bridge positions count the residues as written; N and C are the ends. Side chains are listed from the residue outwards. * marks the point of attachment. Biotin = O=C1N[C@H]2[C@H](CS[C@H]2CCCCC(=O)*)N1; AEEA = NCCOCCOCC(=O)O

For assay [1], the target named is T1, KDR expressed on transiently transfected 293H cells (human), P35968. Kind of assay: competition with 125I-VEGF on KDR-transfected 293H cells (mock subtracted), peptide at 30 µM. The settings on record: remark: other sources report otherwise.
In assay [2] the target is T1, KDR expressed on transiently …. As to the kind of experiment: competition with 125I-VEGF on KDR-transfected 293H cells (mock subtracted), peptide at 0.3 µM. The settings on record: remark: other sources report otherwise.

T1 sequence (P35968 20-1356): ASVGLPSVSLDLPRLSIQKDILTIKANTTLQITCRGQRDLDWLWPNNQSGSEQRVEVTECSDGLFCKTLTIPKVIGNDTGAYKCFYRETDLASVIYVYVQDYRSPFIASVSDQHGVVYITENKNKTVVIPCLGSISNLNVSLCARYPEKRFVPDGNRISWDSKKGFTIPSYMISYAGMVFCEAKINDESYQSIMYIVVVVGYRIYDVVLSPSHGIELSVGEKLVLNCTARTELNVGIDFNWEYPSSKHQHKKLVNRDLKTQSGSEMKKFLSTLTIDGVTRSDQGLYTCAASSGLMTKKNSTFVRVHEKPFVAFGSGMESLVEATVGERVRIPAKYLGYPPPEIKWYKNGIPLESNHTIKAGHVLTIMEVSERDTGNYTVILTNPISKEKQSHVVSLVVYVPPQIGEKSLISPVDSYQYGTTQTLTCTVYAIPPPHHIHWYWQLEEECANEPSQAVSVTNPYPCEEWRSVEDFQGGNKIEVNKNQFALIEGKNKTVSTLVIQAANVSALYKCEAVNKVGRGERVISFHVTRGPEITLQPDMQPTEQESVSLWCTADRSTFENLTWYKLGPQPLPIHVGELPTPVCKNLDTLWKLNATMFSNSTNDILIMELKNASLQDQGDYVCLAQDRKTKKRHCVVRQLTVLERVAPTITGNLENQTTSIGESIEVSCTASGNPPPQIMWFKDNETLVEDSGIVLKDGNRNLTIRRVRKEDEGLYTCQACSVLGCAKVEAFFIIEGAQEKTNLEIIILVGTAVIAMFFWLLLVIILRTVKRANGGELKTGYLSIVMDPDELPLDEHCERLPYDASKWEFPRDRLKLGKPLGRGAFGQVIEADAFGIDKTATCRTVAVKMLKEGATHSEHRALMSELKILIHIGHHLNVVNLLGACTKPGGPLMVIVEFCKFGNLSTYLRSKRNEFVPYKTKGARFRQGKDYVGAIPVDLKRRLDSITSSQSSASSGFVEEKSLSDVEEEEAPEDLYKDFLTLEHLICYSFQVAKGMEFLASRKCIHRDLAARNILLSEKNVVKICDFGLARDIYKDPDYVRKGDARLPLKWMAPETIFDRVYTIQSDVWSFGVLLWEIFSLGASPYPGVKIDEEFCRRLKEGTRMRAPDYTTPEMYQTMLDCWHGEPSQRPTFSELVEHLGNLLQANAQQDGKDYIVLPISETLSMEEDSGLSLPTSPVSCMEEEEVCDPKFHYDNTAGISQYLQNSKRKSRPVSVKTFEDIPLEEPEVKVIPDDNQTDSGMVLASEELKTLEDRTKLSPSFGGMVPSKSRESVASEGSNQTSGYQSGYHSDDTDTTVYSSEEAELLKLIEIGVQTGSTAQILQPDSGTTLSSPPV

Turning to Ac-AGPKWCEEDWYYCMITGTGGGK([AEEA-AEEA-Biotin])-NH2 (disulfide 6-13 (inferred)) [biotinylated SEQ ID NO:264 with a JJ spacer], the % inhibition of 125I-labeled VEGF binding in assay [1] is 48%; in assay [2], 24.4%.
